Numbering of substitutions follows the chain as printed.
Experiments:
[1] = biological target: SARS CoV-2 spike protein on pseudovirus (SARS-CoV-2, UniProt P0DTC2 14-1273); assay: cell-based or functional assay
[2] = biological target: T1, SARS-CoV-2 Receptor Binding Domain (RBD) protein (SARS-CoV-2); assay: SPR (Carterra LSA), scFv captured via anti-V5, RBD as analyte, 1:1 fit
[3] = biological target: T1, SARS-CoV-2 Receptor Binding Domain …; assay: SPR (Carterra LSA), scFv captured via anti-V5, RBD as analyte

B1: COVID19_P24_G06 (scFv, V domains shown)
VH: QVQLVQSGAEVKKPGASVKVSCKASGYTFTNYGISWVRQAPGQGLEWMGWISARNGNTNYAQKFQGRVTMTRDTSTSTVYMELSSLRSEDTAVYYCTTDPVLEWFGYSIWGQGTMVTVSS
VL: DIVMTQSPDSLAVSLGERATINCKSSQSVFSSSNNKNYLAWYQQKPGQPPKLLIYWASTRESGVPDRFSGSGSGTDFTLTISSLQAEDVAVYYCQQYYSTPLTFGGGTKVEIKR
B1 was tested, and the “IC50 [µg/mL] pseudotyped lenti neut” value [1] was 0.16 µg/mL.

B2: COVID19_P24_D08 (scFv, V domains shown)
VH: QVQLVQSGAEVKKPGASVKVSCKASGYTFTSYDINWVRQAPGQGLEWMGIIDPSGGSTSYAQKFQGRVTMTRDTSTSTVYMELSSLRSEDTAVYYCATVTPGYGMDVWGQGTTVTVSS
VL: DIQMTQSPSSLSASVGDRVTITCRASQTIYSYLNWYQQKPGKAPKLLIYDASNLETGVPSRFSGSGSGTDFTLTISSLQPEDFATYYCQQAISFPLTFGGGTKLEIKR
With B2 the “IC50 [µg/mL] pseudotyped lenti neut” value [1] was 17 µg/mL.

B3: COVID19_P24_C01 (scFv, V domains shown)
VH: QVQLVQSGAEVKKPGASVKVSCKASGYTFTRYYIHWVRQAPGQGLEWMGIINPSGGSTTYAQKFQGRVTMTRDTSTSTVYMELSSLRSEDTAVYYCAKGAPHDYIWGSYRPDAFDIWGQGTMVTVSS
VL: DIQMTQSPSSLSASVGDRVTITCRASENIDSWLAWYQQKPGKAPKLLIYEASTLESGVPSRFSGSGSGTDFTLTISSLQPEDFATYYCHQYLSSPETFGQGTKVEIKR
B3 was tested, and the “IC50 [µg/mL] pseudotyped lenti neut” value [1] was 0.92 µg/mL.

B4: COVID19_P23_G11 (scFv, V domains shown)
VH: QVQLVQSGAEVKKPGASVKVSCKASGGTFRSTAISWVRQAPGQGLEWMGWMNPNSGNTGYAQKFQGRVTMTRDTSTSTVYMELSSLRSEDTAVYYCARAGYSSSSGYYYYGMDVWGKGTTVTVSS
VL: DIQMTQSPSSLSASVGDRVTITCRASQGISNNLNWYQQKPGKAPKLLIYAASSLQSGVPSRFSGSGSGTDFTLTISSLQPEDFATYYCQQYDTFPLTFGQGTKVEIKR
B4 was tested, and the “IC50 [µg/mL] pseudotyped lenti neut” value [1] was 0.26 µg/mL.

B5: COVID19_P23_G12 (scFv, V domains shown)
VH: QVQLVQSGAEVKKPGASVKVSCKASGYIFTSYPIHWVRQAPGQGLEWMGWMNPNSGNTGYAQKFQGRVTMTRDTSTSTVYMELSSLRSEDTAVYYCARDRGSYDTDAFDIWGQGTMVTVSS
VL: B4 VL with G28D, N32Y, S53N, Y91A, D92N, T93S, L96S, V104L
B5 was tested, and the “IC50 [µg/mL] pseudotyped lenti neut” value [1] was 15.9 µg/mL, the Kd [2] was 0.37 nM and the Kd [3] was < 50 nM.
